{"source": "paper doi:10.1101/2021.02.27.433207", "key": {"ParA2 (Vibrio cholerae)": {"system": "ParA2 (Vibrio cholerae)", "assay": "EMSA"}, "[1]": {"target": "Vibrio cholerae chromosome 2 ParA2 (Vibrio cholerae)", "assay": "SEC-MALS"}}, "data": [{"substance": "Cy3-62-bp DNA", "values": [{"measurement": "Kd", "setting": "ParA2 (Vibrio cholerae)", "value": 1, "unit": "µM"}]}, {"substance": "Vibrio cholerae chromosome 2 ParA2 (enzyme)", "values": [{"measurement": "stoichiometry N", "setting": "[1]", "value": 2}]}]}
